Measured values reported in the DeepSol protein solubility set.

Experiment: soluble on expression in E. coli; label from the status in PepcDB or PDB records

Sequence	soluble on expression in E. coli
MKNERIEKLQESWELDTRWKGITRPYSAEDVIRLRGSIDIEHTLARRGAEKLWASLHTEDYINALGALTGNQAMQQVKAGLKAIYLSGWQVAADANLSGHMYPDQSLYPANSVPAVVKRINQTLQRADQIQHMEGSGDTDYFVPIVADAEAGFGGQLNVFELMKGMIEAGASGVHFEDQLSSEKKCGHLGGKVLLPTQTAVRNLISARLAADVMGVPTIIVARTDADAADLITSDIDPVDKAFITGERTPEGFYRTKAGLDQAIARGLAYAPYADLVWCETSEPNLEDAKRFADAIHKEHPGKLLAYNCSPSFNWKQKLDEKTIASFQKEIASYGYKFQFVTLAGFHSLNYGMFELARGYKERGMAAYSELQQAEFAAEKHGYSATRHQREVGTGYFDEVAQVITGGTSSTTALKGSTEEAQFTK	not soluble
TGRGVKYWFCYGTKCYYFIMNKTTWSGCKANCQHYSVPIVKIEDEDELKFLQRHVIPEGYWIGLSYDKKKKEWAWIDNGPSKFDMKIRKMNFKSRGCVFLSKARIEDTDCNIPYYCICGKKLDKFPD	soluble
LRPEDFTTLLQTADFRLRLLEAIAAATRRVYICALYLENEEAGQEMLDALYRAKQRNPQLDVRVMVDWHRAQRGRIGEDQSHCNASWYREEAARRELDIPIYGVPVQTRELFGVLHLKGFVIDDTVFYSGASLNNVYLHKLDKYRFDRYHLIRSPELADAMAGFMAEQFFNDPAVFRLD	not soluble
MSLGTLWWNGTFFTMVHEGDQVEAVFTEDGKIVAIGTAEELRQRYSTRINQEMNCDGAYVYPGFVDSHLHMIGHGEKLLRLDLSTVMNAEDMREKLMERVALTEEGDWVTAEGWNENNFPDQKIFHRNELDEIAPNHPMILTRVCRHAILVNSKALQLAGISKDTTDPPGGRIVRDELGEPTGYLLDTAQELVKRVAPSVSAAYLERALAAAVDDMVAKGLVGGHTEDLGYYLGFNQTFATFQRVIDGNTRRFRAHLLVHHEVIDDMIKAGYCKGPVGEWLEFGAMKIFADGAFGGRTALLSEPYCDAPTTSGVAIHTQEQLTNLIKKARQYKLPVAIHTIGDEALRMAITSIEAHPVTEGRDRLIHTQVTPPSLVERMKKLKVILDIQPAFVPADFPWVEERLGNERLSYSFAWKTLLRSGMALAGGSDAPIEEVDPLYGIYAAVARKKPTDQHEGYLPEEKLTRYEALQLYTTGSAYAIEREHERGNIRPGYVADFTMLNRNLFTCREEELLTTRVEKTVIGEAIVFQAKGIITITTDPNSSSVDKLAAALEHHHHHH	soluble
MGSDKIHHHHHHVAFSAKASLATAIGRSSYWFLHTFLKGGSSLPGQIANRIDPQVLRTLGQNYDVIVVTGTNGKTLTTSLIVKVLKKKYKEVLTNPTGSNMLQGITTAFLAQPKRGHGRGIAVLEVDEANVAPVAAQLKPKAFVLTNIFRDQMDRYGEFYTTYQKILDGVTRDPEAMVIANGDAPIFSSRKLPNPVTYYGFELTANGDHKAPPNTDGVLCPVCQHILHYHAQTYANLGNYFCPHCGFKRPALTHQITEVTQMTPQSSDFMIDDQPCHIDIGGMYNIYNALAAFAVGRAFGVTPTEISQAFAYDEKVFGRQEVIQLGKKKLTLILVKNPVGLNQVLSMIETAKQPFGFAMLLNANYADGIDTSWIWDGNFEELVASQKAASYLVGGERYKDIGLRLTVAGVPEKALVSKPALDDVISTLKRSQQDQLYVLATYTAMLQLRKKLSDGGYIKAGF	not soluble
MKNWIVGMVALVTMVPVMAATPWQKITHPVAGSPQSIGGFANGCVIGAQPLPLESADYQVMRSDQRRYFGHPDLLNFIHRLSAQTHQQQLGTVLIGDMAMPAGGRFSSGHASHQSGLDVDIWLQLPKQRWSQQQLLKPQPIDLVAVDGKRVIPALWQPQIESLIKLAAKDNDVTRIFVNPAIKKQLCLDAGADRQWLHKVRPWFAHRAHMHVRLRCPANSLECVDQDTPPPGDGCGAELESWFQPPPPSAKPGKTLPPPLPPSCQALLDNHFATE	not soluble
MSLDFDADTPVVGMVHLSPLPGAPGYDDGNRPAIRDAALRDASRLEAGGVDALLVENFGDAPFYADDVPKHVVASMAALVRDITREAEVPVGVNVLRNDAEAAVSIAAAADADFVRVNVHTGARLTDQGVVGGQAAETVRLRDRLDAAEVSMLADIDVKHSAALAERPLSEGVAELLERGHADGVIASGAGTGHATDHDHLQAVVDARDRLDADAPVFVGSGVTQETVGATLDLADGAIVGTALKQNGETTAPVDGDRVRALVDAAR	not soluble
